Experimental data reported in FireProtDB (doi:10.1002/pro.5560010709).

Settings: Bos taurus; pH 4.2; Thermal; CD; Sodium acetate 0.01 M; NaCl 0.1 M; reversible: yes; whole UniProt chain shown

B1: Ribonuclease pancreatic wild type, P61823 (protein)
chain: MALKSLVLLSLLVLVLLLVRVQPSLGKETAAAKFERQHMDSSTSAASSSNYCNQMMKSRNLTKDRCKPVNTFVHESLADVQAVCSQKNVACKNGQTNCYQSYSTMSITDCRETGSSKYPNCAYKTTQANKHIIVACEGNPYVPVHFDASV
  Tm: 56 °C
